Measurements as given in paper PMC8151288.

What was measured:
[1] = target: His6-PA3027 (Pseudomonas aeruginosa PAO1161) (UniProt Q9HZH9); test: cross-linking; purified His6-PA3027 cross-linked with increasing concentration of glutaraldehyde; Western blot with anti-His antibodies
[2] = target: His6-PA3027 (Pseudomonas aeruginosa PAO1161) (UniProt Q9HZH9); test: SEC-MALS; 100 uL of 1 mg/mL His6-PA3027 on Superdex 200 Increase 10/300 in Buffer S (20 mM MES pH 6.5, 200 mM (NH4)2SO4, 200 mM NaCl), room temperature, 0.5 mL/min; monomer and dimer

stoichiometry N [1]: 2
stoichiometry N [2]: 2
Substance: His6-PA3027 (from UniProt Q9HZH9 1-343) (natural protein)
